The values below are quoted from earlier work in patent publication US7037697B2, “Isozyme of autoclavable superoxide dismutase (SOD), a process for the identification and extraction of the SOD and use of the said SOD in cosmetic, food, and pharmaceutical compositions” (Council of Scientific & Industrial Research, priority 2000, dated 2006).

The conditions of this data set: Cu/Zn-SOD, Bonaccorsi di Patti et al. 1994.

As for ox: Cu/Zn-SOD from ox, the conformational melting temperatures was 88.05 °C.

B1: yeast: Cu/Zn-SOD from yeast (protein, UniProt P00445 2-154, looked up)
Superoxide dismutase [Cu-Zn]: VQAVAVLKGDAGVSGVVKFEQASESEPTTVSYEIAGNSPNAERGFHIHEFGDATNGCVSAGPHFNPFKKTHGAPTDEVRHVGDMGNVKTDENGVAKGSFKDSLIKLIGPTSVVGRSVVIHAGQDDLGKGDTEESLKTGNAGPRPACGVIGLTN
Take B1: the conformational melting temperatures is 73.1 °C.
